Results on three molecules are retold here after patent publication US20060148057A1, “Thioredoxin mutants and uses thereof” (priority 2002, published 2006).

Substitutions are numbered along the chain they refer to. In names and notes the source's numbering stands.

The test system of one assay is ASK1. The experiment in a line: Trx-induced ASK1 ubiquitination and degradation in transfected BAEC (Western blot, IP/anti-Ub). In kind it is cell-based, Bovine. The note with it: for ASK1 poly-ubiquitination / endogenous ASK1 protein level: BAEC transfected with Trx construct vs control vector; for endogenous ASK1 protein level: Western blot anti-ASK1. The protocol:
Transfection Transfection of EC was performed by Lipofectamine2000 according to manufacturer's protocol (Gibco). Cells were cultured at 90% confluence in 6-well plates and were transfected with total 4 μg plasmid constructs as indicated. Cells were harvested at 36-48 h post-transfection and cell lysates were used for protein assays.
Immunoprecipitation and immunoblotting EC after various treatments were washed twice with cold PBS and lysed in 1.5 ml of cold lysis buffer (50 mM Tris-HC, pH 7.6, 150 mM NaCl, 0.1% Triton X-100, 0.75% Brij 96, 10 μg/ml aprotinin, 10 μg/ml leupeptin, 2 mM PMSF, 1 mM EDTA) for 20 min on ice. Protein concentrations were determined with a Bio-Rad kit. For immunoprecipitation to analyze protein interaction in vivo, 400 μg of cell lysate supematant were incubated with 5 μg of the first protein-specific antiserum (e.g. anti-Trx from Medical & Biological Laboratory) for 2 h with 50 μl of GammaBind plus Sepharose. Immune complexes were collected after each immunoprecipitation by centrifugation at 14,000× g for 10 min followed by 4 washes with lysis buffer. The immune complexes were subjected to Western blot with the second protein (e.g., ASK1)-specific antibody (Santa Cruz Biotech, Santa Cruz, Calif.). The chemiluminescence was detected using an ECL kit according to the instructions of the manufacturer (Amersham Life Science, Arlington Heights, Ill.). For Flag-tagged and HA-tagged proteins, anti-Flag M2 antibody (Sigma) and anti-HA antibody (Roche Diagnostics) were used, respectively.
Trx induces ASK1 ubiquitination and degradation in EC. To determine if Trx affects ASK1 protein stability, BAEC were transfected with Trx-expressing plasmid or a control vector (VC) with Lipofactamine2000. Transfection efficiency was determined by transfection of a GFP construct under a fluorescence microscope and usually reached 90% in BAEC and 10% in HUVEC. The high transfection efficiency in BAEC allowed us to examine effects of transgene on endogenous ASK1. Endogenous ASK1 was determined by Western blot with anti-ASK1. […] The high molecular bands are usually ubiquitination of target proteins for degradation (Laney J D et al. Substrate targeting in the ubiquitin system. Cell 97:427-30 (1999)). […] The ubiquitination of ASK1 was also confirmed by co-expression of ASK1 and HA-tag Ub (Treier et al. Ubiquitin-dependent c-Jun degradation in vivo is mediated by the delta domain. Cell 78:787-98 (1994)).

The subject of the next assay is JNK. The assay can be described thus: ASK1-induced JNK activation in BAEC, in vitro kinase assay with GST-c-Jun. It counts as cell-based, Bovine. Conditions: co-expression with ASK1 1:1, 24 h post-transfection. The method, then: J Immunol. 159:3508-18 (1997)) using GST-MKK4 and GST-c-Jun (1-80) fusion protein as a substrate, respectively. Briefly, total 400 μg cell lysates were immunoprecipitated with 5 μg of antibody against ASK1 or JNK1 (Santa Cruz). The immunoprecipitates were mixed with 10 μg GST-MKK4 or GST-c-Jun (1-80) suspended in the kinase buffer (20 mM Hepes, pH 7.6, 20 mM MgCl2, 25 mM β-glycerophosphate, 100 μM sodium orthovanadate, 2 mM DTT, 20 μM ATP) containing 1 μl (10 μCi) of [γ-32P] ATP. The kinase assay was performed at 25° C. for 30 min. The reaction was terminated by the addition of Laemmli sample buffer and the phosphorylated GST-MKK4 or GST-c-Jun (1-80) was visualized by autoradiography.
Trx-C32S and Trx-C35S (but not Trx-WT) inhibits ASK1-mediated EC apoptosis induced by TNF. To determine the biological consequence of Trx-induced ASK1 ubiquitination/degradation, the effects of Trx on ASK1-induced apoptosis were examined. ASK1-induced activation of JNK and caspase 3 has been implicated in cell d e a t h (Hatai T et al. Execution of apoptosis signal-regulating kinase 1 (ASK1) induced apoptosis by the mitochondria-dependent caspase activation. J Biol Chem.275:26576-81 (2000); Tournier C et al. Requirement of JNK for stress-induced activation of the cytochrome c- mediated death pathway. Science. 288:870-4 (2000)). First, the effects of Trx on JNK activation induced by ASK1 were examined. BAEC were co-transfected with ASK1 and Trx expression constructs as indicated, and JNK activity was measured by an in vitro kinase assay using GST-c-Jun as a substrate. […] Co-expression of Trx-WT, Trx-C32S and Trx-C35S (but not Trx-CS) inhibited ASK1-induced JNK activity (FIG. 6A top panel). Western blot with anti-Flag indicated equal amounts of Trx proteins were expressed (FIG. 6A bottom panel). Similar results were obtained in human EC (HUVEC).

B1: thioredoxin (protein)
chain: MVKQIESKTAFQEALDAAGDKLVVVDFSATWCGPCKMIKPFFHSLSEKYSNVIFLEVDVDDCQDVASECEVKCMPTFQFFKKGQKVGEFSGANKEKLEATINELV
modifications: Flag tag or GST fusion
notes: Flag-tagged or GST fusion
As to B1, the “ubiquitination and degradation of ASK1-ΔN” value in the assay on ASK1 (BAEC co-transfected with ASK1-ΔN (lacks N-terminal Trx-binding domain)) is “did not induce ubiquitination and degradation”. Moreover, the ASK1 poly-ubiquitination entry in the assay with ASK1 is “increased ASK1 poly-ubiquitination”; in the assay with ASK1 (listed as Trx), “significantly increased ASK1 ubiquitination”. In addition, the “endogenous ASK1 protein level” value is listed as “decrease in ASK1 protein” in the assay on ASK1 and “decreased protein level of ASK1” with ASK1 (listed as Trx). In the assay with JNK, the “ASK1-induced JNK activity” value is recorded as “inhibited”.

B2: Trx-C32S: C32S single mutant of Trx at the catalytic site, SEQ ID NO:2 (protein)
chain: B1 chain with C32S
For B2, in the assay with ASK1, the ASK1 poly-ubiquitination result is “increased ASK1 poly-ubiquitination” and the “endogenous ASK1 protein level” value was “decrease in ASK1 protein”. In the assay with JNK, the “ASK1-induced JNK activity” value was “inhibited”.

B3: Trx-C35S: C35S single mutant of Trx at the catalytic site, SEQ ID NO:3 (protein)
chain: B1 chain with C35S
For the molecule B3, in the assay on ASK1, the ASK1 poly-ubiquitination entry is recorded as “increased ASK1 poly-ubiquitination” and the “endogenous ASK1 protein level” value is on record as “decrease in ASK1 protein”. Further, the “ASK1-induced JNK activity” value in the assay with JNK is “inhibited”.
